Assay results as given in the Immune Epitope Database (IEDB).

target: HLA-A*02:01; test: IEDB peptide-MHC binding, purified MHC/competitive/radioactivity; ≥ and ≤ were set here for values at or beyond the usual limits of such assays; settings: source organism: Bordetella pertussis

Sequence | IC50
WVMTDNSNV | 29.2 µM
ITSYVGFSV | 4.39 µM
IVVEAGELV | 9.86 µM
RLRKMLYLI | 14.9 µM

target: HLA-B*07:02; test: as above; settings: source organism: Bordetella pertussis

Sequence | IC50
CFGKDLKRP | 69.6 µM
RTHGVGASL | 1.58 µM
GIVIPPKAL | 69.6 µM
LAAGAGLTL | 7.38 µM
RPQITDAVT | 16.3 µM

target: HLA-B*35:01; test: as above; settings: source organism: Bordetella pertussis

Sequence | IC50
LFTQQGGAY | 69.9 µM
APNALAWAL | 6.26 µM
PDAHVPFCF | 69.9 µM

target: HLA-B*44:03; test: as above; settings: source organism: Bordetella pertussis

Sequence | IC50
GELMAAQVA | 0.572 µM
MESNKDIVI | 9.93 µM

target: HLA-B*53:01; test: as above; settings: source organism: Bordetella pertussis

Sequence | IC50
LAAGAGLTL | 58.7 µM
VPVSEHCTV | 69.9 µM
